Here are results for 18 substances from patent US6495144.

Data set [1] has as its system CBF1 + EBNA2 GP320SR (CR6) GP320SR (Homo sapiens / Epstein-Barr virus). Description: EMSA. Particulars: supershifted complex relative to wild-type. On the technique in general: Mobility shift assays separate free from complexed probe on a gel.
Data set [2] concerns CBF1 + EBNA2 II307SR (CR5) II307SR (Homo sapiens / Epstein-Barr virus). Kind of data set: EMSA. To be noted: supershifted complex relative to wild-type.
Data set [3] deals with CBF1 + EBNA2 LGL389SRT (CR7) LGL389SRT (Homo sapiens / Epstein-Barr virus). Description: EMSA. Particulars: supershifted complex relative to wild-type.
In data set [4] the test system is CBF1 + EBNA2 PI326SR (CR6) PI326SR (Homo sapiens / Epstein-Barr virus). Kind of data set: EMSA. To be noted: supershifted complex relative to wild-type.
In data set [5] the test system is CBF1 + EBNA2 SR360VD (PKC) SR360VD (Homo sapiens / Epstein-Barr virus). Kind of data set: EMSA. Particulars: supershifted complex relative to wild-type.
In data set [6] the test system is CBF1 + EBNA2 WW323SR (CR6) WW323SR (Homo sapiens / Epstein-Barr virus). Description: EMSA. Particulars: no supershifted complex.
Data set [7] deals with CBF1 + EBNA2 del252-309,398-425 del252-309,del398-425 (Homo sapiens / Epstein-Barr virus). Description: EMSA. To be noted: no supershifted complex.
Data set [8] has as its system CBF1 + EBNA2 del252-366 del252-366 (Homo sapiens / Epstein-Barr virus). Kind of data set: EMSA. To be noted: no supershifted complex.
The test system of data set [9] is CBF1 + EBNA2 del343-425 del343-425 (Homo sapiens / Epstein-Barr virus). Kind of data set: EMSA. Particulars: no stable supershifted complex; partially competed CBF1 complex.
The subject of data set [10] is CBF1 + EBNA2 del344-357 del344-357 (Homo sapiens / Epstein-Barr virus). Kind of data set: EMSA. To be noted: supershifted complex relative to wild-type.
The test system of data set [11] is CBF1 + EBNA2 del376-425 del376-425 (Homo sapiens / Epstein-Barr virus). Kind of data set: EMSA. To be noted: supershifted complex relative to wild-type.
The test system of data set [12] is CBF1 + type A EBNA2 252-425 complex (Homo sapiens / Epstein-Barr virus). Description: EMSA. Particulars: supershifted EBNA2/CBF1 complex, reference; EBNA2 tethered through CBF1.
The target in data set [13] is CBF1/RBPJk (UniProt Q06330). Description: EMSA supershift with heparin-agarose purified CBF1 and Cp CBF1 site probe; phosphoimager, relative to wild-type EBNA2(252-425).
Chain of CBF1/RBPJk (Q06330 whole entry, the tested form may be a part): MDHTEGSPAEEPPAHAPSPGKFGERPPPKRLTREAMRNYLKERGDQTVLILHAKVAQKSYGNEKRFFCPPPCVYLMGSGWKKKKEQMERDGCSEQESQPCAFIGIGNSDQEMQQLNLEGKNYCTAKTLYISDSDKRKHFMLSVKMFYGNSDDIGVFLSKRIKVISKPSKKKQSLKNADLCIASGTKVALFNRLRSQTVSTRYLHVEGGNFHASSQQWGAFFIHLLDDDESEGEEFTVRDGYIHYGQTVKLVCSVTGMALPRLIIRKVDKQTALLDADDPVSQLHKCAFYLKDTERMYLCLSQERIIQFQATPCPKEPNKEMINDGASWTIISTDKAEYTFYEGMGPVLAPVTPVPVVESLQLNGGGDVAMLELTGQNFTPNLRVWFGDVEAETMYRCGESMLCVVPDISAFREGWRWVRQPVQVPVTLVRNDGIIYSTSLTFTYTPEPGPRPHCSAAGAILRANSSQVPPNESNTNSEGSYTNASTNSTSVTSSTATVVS
The target in a further data set is GAL4-CBF1 (KLV249AAA) (UniProt P04386). Description: cell-based or functional assay.
The target of another data set is GAL4-CBF1 (wild-type) (UniProt P04386). Kind of data set: cell-based or functional assay.
The target in the next data set is GAL4CBF1 (EEF233AAA) (UniProt P04386). Kind of data set: cell-based or functional assay.
The target in data set [14] is CBF1/RBPJk (UniProt Q06330). Kind of data set: cell-based or functional assay.

In the case of Cp CBF1 binding site 30-bp probe, the binding signal in data set [1] is 90%; in data set [2], 20%; in data set [3] it was 50%; in data set [4] it was 5%; in [5], 60%; in data set [6] it was under 1%. For the same substance, the binding signal in [7] was under 1%; in data set [8], under 1%; in data set [9], under 1%; in [10], 100%; in data set [11], 10%; in [12], 100%.

Turning to “EBNA2 252-425 II307SR (CR5) (from UniProt P12978 252-425)”, in the data set with CBF1/RBPJk [13], the % Complex formation was 20%.

Turning to “EBNA2 252-425 del252-309,398-425 (from UniProt P12978 310-397)”, the % Complex formation with CBF1/RBPJk [13] was under 1%.

As to “EBNA2 252-425 del252-366 (from UniProt P12978 367-425)”, in the data set with CBF1/RBPJk [13], the % Complex formation is under 1%.

On to “EBNA2 252-425 del343-425 (from UniProt P12978 252-342)”, for which, in the data set with CBF1/RBPJk [13], the % Complex formation is under 1%.

Take “EBNA2 252-425 del344-357 (from UniProt P12978 252-343; P12978 358-425)”: the % Complex formation in the data set with CBF1/RBPJk [13] turned out to be 100%.

In the case of “EBNA2 252-425 del376-425 (from UniProt P12978 252-375)”, the % Complex formation in the data set with CBF1/RBPJk [13] came to 10%.

For the substance “EBNA2 (effector of Table 2) (from UniProt P12978 1-487)”, the Relative CAT Activity (relative to CAT reporter alone) in the data set with GAL4-CBF1 (KLV249AAA) was 21.

On to “Notch1IC (from UniProt Q01705 1751-2531) (receptor)”, for which the Relative CAT Activity (relative to CAT reporter alone) in the data set with GAL4-CBF1 (KLV249AAA) was 1.3; in the data set with GAL4-CBF1 (wild-type), 4.9; with GAL4CBF1 (EEF233AAA) it was 4.2.

Consider “Notch2IC (from UniProt Q9QW30 1789-2471) (receptor)”, for which the Relative CAT Activity (relative to CAT reporter alone) with GAL4-CBF1 (KLV249AAA) turned out to be 1.3; in the data set with GAL4-CBF1 (wild-type) it was 5.7; in the data set with GAL4CBF1 (EEF233AAA), 4.5.

In the data set with CBF1/RBPJk [14], “full-length EBNA2 GP320SR (CR6) (from UniProt P12978 1-487)” came in with a % Transactivation of 120%.

Take “full-length EBNA2 II307SR (CR5) (from UniProt P12978 1-487)”: in the data set with CBF1/RBPJk [14], the % Transactivation is 20%.

In the data set with CBF1/RBPJk [14], “full-length EBNA2 LGL389SRT (CR7) (from UniProt P12978 1-487)” displayed a % Transactivation of 100%.

With “full-length EBNA2 PI326SR (CR6) (from UniProt P12978 1-487)”, in the data set with CBF1/RBPJk [14], the % Transactivation was 2% and the transactivation at the highest levels of effector DNA (Cp-CAT, DG75 cells) was 20%.

For “full-length EBNA2 SR360VD (PKC) (from UniProt P12978 1-487)”, the % Transactivation with CBF1/RBPJk [14] came to 110%.

As to “full-length EBNA2 WW323SR (CR6) (from UniProt P12978 1-487)”, the % Transactivation in the data set with CBF1/RBPJk [14] amounted to 0%.

Take “full-length EBNA2 del344-357 (from UniProt P12978 1-487)”: the % Transactivation with CBF1/RBPJk [14] is 150%.

Consider “wild-type EBNA2 (full-length, type A) (from UniProt P12978 1-487)”, for which the % Transactivation in the data set with CBF1/RBPJk [14] stood at 100%.
